In paper PMC7505815, “Estrogen receptor alpha (ERα)–mediated coregulator binding and gene expression discriminates the toxic ERα agonist diethylstilbestrol (DES) from the endogenous ERα agonist 17β-estradiol (E2)” (Cell Biology and Toxicology, 2020):

T1: Polyhistidine (His) tagged ERα ligand binding domain (amino acids 302–552) (UniProt P03372 302-552)
T1 construct: Detected on the array by a penta-His Alexa Fluor 488 antibody; Always tested with E2, DES or solvent (2% DMSO); also called ERα-LBD; source: partly purified from Escherichia coli (Qiagen)
T1 sequence (looked up): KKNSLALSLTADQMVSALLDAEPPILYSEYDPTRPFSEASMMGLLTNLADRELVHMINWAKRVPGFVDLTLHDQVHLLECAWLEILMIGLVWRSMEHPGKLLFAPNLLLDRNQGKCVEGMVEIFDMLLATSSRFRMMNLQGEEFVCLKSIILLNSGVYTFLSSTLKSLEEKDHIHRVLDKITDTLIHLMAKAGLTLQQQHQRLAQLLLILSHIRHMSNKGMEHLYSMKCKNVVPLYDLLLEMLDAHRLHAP

B1: NCOR1_662_684_C662S (peptide, UniProt O75376 662-684, looked up)
peptide: SKNFYFNYKRRHNLDNLLQQHKQ
notes: Immobilised on the PamChip; source: bought: PamChip peptide microarray, PamGene International BV
B2: TIF1A_373_395_C394S (peptide, UniProt O15164 373-395, looked up)
peptide: TALLYSKRLITYRLRHLLRARSD
notes: as for B1
B3: CBP_2055_2077 (peptide, UniProt Q92793 2055-2077, looked up)
peptide: SVQPPRSISPSALQDLLRTLKSP
notes: as for B1
B4: NRIP1_173_195_C177S (peptide, UniProt P48552 173-195, looked up)
peptide: KDLRSYGVASSHLKTLLKKSKVK
notes: as for B1
B5: NRIP1_173_195 (peptide, UniProt P48552 173-195, looked up)
peptide: KDLRCYGVASSHLKTLLKKSKVK
notes: as for B1
B6: TRIP4_149_171_C171S (peptide, UniProt Q15650 149-171, looked up)
peptide: FVNLYTREGQDRLAVLLPGRHPS
notes: as for B1
B7: NCOA1_1421_1441 (peptide, UniProt Q15788 1421-1441, looked up)
peptide: TSGPQTPQAQQKSLLQQLLTE
notes: as for B1
B8: NCOA1_677_700 (peptide, UniProt Q15788 677-700, looked up)
peptide: PSSHSSLTERHKILHRLLQEGSPS
notes: as for B1
B9: ANDR_10_32 (peptide, UniProt P10275 10-32, looked up)
peptide: VYPRPPSKTYRGAFQNLFQSVRE
notes: Immobilised on the PamChip; also called Androgen receptor–related coregulator motif; source: bought: PamChip peptide microarray, PamGene International BV
B10: NCOA2_628_651 (peptide, UniProt Q15596 628-651, looked up)
peptide: GQSRLHDSKGQTKLLQLLTTKSDQ
notes: as for B1

molecular target: T1, Polyhistidine (His) tagged ERα ligand …; assay: peptide or protein array; MARCoNI, PamChip peptide microarray: coregulator motif peptides immobilised; His-ERα-LBD 10 nM (partly purified) in solution with E2 (10^-12 to 10^-5 M), detected with penta-His Alexa Fluor 488 antibody 25 nM; 20 °C; 20 mM Tris-HCl pH 7.5, 500 mM NaCl, 0.2% BSA, 0.05% Tween 20, 2% DMSO; conditions: both partners purified

Question: Does B1 bind?
Answer: Result: binds

Question: Does B2 bind?
Answer: Result: binds

Question: Does B3 bind?
Answer: Result: binds

Question: Does B4 bind?
Answer: Result: binds

Question: Does B5 bind?
Answer: Result: binds

Question: Does B6 bind?
Answer: Result: binds

molecular target: T1, Polyhistidine (His) tagged ERα ligand …; assay: as above; conditions: both partners purified; remark: another data set of the same source

Question: Does B7 bind?
Answer: Result: binds

Question: Does B8 bind?
Answer: Result: binds

Question: Does B9 bind?
Answer: Result: binds

Question: Does B10 bind?
Answer: Result: binds
